How the values were obtained:
[1] = target: 天然类风湿因子RF (natural rheumatoid factor; 北京霍尔姆斯(Holmes)生物技术有限公司, 货号HA129AN); test: indirect ELISA, RF coated, ascites diluted 1:100
[2] = target: 天然类风湿因子RF (natural rheumatoid factor; 北京霍尔姆斯(Holmes)生物技术有限公司, 货号HA129AN); test: indirect ELISA, RF coated, ascites diluted 1:62500
[3] = target: 天然类风湿因子RF (natural rheumatoid factor; 北京霍尔姆斯(Holmes)生物技术有限公司, 货号HA129AN); test: indirect ELISA, RF coated, ascites diluted 1:1562500
[4] = target: 天然类风湿因子RF (natural rheumatoid factor; 北京霍尔姆斯(Holmes)生物技术有限公司, 货号HA129AN); test: indirect ELISA, RF coated, ascites diluted 1:12500
[5] = target: 类风湿因子RF in clinical false-positive serum samples 9233354 (RF1) and 9233353 (RF2); test: cell-based or functional assay
[6] = target: 天然类风湿因子RF (natural rheumatoid factor; 北京霍尔姆斯(Holmes)生物技术有限公司, 货号HA129AN); test: indirect ELISA, RF coated, ascites diluted 1:2500
[7] = target: 天然类风湿因子RF (natural rheumatoid factor; 北京霍尔姆斯(Holmes)生物技术有限公司, 货号HA129AN); test: indirect ELISA, RF coated, ascites diluted 1:312500
[8] = target: 天然类风湿因子RF (natural rheumatoid factor; 北京霍尔姆斯(Holmes)生物技术有限公司, 货号HA129AN); test: indirect ELISA, RF coated, ascites diluted 1:500

- ELISA read-out at ascites dilution 100 [1]: 2.01
- ELISA read-out at ascites dilution 62500 [2]: 0.715
- ELISA read-out at ascites dilution 1562500 [3]: 0.195
- ELISA read-out at ascites dilution 12500 [4]: 1.17
- 干扰的影响降低 (免疫胶体金平台) [5]: 10 倍
- ELISA read-out at ascites dilution 2500 [6]: 1.52
- ELISA read-out at ascites dilution 312500 [7]: 0.461
- ELISA read-out at ascites dilution 500 [8]: 1.82
B1: 单克隆抗体anti-blocker-MAB7 (A3-2) (antibody, V domains shown)
VH: VKLQQSGPGLVKPSQSLSLTCTVTGYSITSDYAWNWIRQFPGNKLEWMGYISYSGSTSYNPSLQSRISITRDTSKNQFFLQLNSVTTEDTATYYCARLANWVFDYWGQGTTLTVSS
VL: DIQMTQSPASLSVSVGETVTITCRASENIYSFLAWYQQKQGKSPQLLVYAATNLADGVPSRFSGSGSGTQYSLKINSLQYEDFGSYYCQHFRGTPYTFGGGTRL
